The values below come from publication PMC8709174.

For the test, the target named is Aplysia californica acetylcholine binding protein (Ac-AChBP) (Aplysia californica). The test is described as follows: crystal structure.

As for α-conotoxin RgIA (peptide), the stoichiometry N (RgIA per Ac-AChBP pentamer) was 5.
